Measurements published in article PMC10577085 (ACS infectious diseases, 2023).

Columns and labels:
[1] = target: SP-GH25 (uncultured virus); assay: SEC
Cpl-1 = Cpl-1 (Streptococcus phage Cp1, UniProt P15057); assay: analytical size exclusion chromatography; type: binding
[2] = target: SP-CHAP (uncultured virus); assay: SEC
[3] = target: Cpl-1 Δtail (bacteriophage Cp-1) (UniProt P15057); assay: AUC
[4] = target: SP-Amidase (uncultured virus); assay: SEC
SEC = target: the molecule itself; assay: SEC

Row | Molecule | stoichiometry N (SEC) | also measured
1 | SP-GH25 (enzyme) | – | stoichiometry N [1]: 2
2 | C[N+](C)(C)CCO [choline] | – | Kd (Cpl-1): ~5 mM
3 | SP-CHAP (enzyme) | – | stoichiometry N [2]: 2
4 | Cpl-1 Δtail (from UniProt P15057 1-323) (domain or fragment) | – | stoichiometry N [3]: 2
5 | SP-Amidase (enzyme) | – | stoichiometry N [4]: 2
6 | Cpl-1 DNP→AAA (enzyme, bacteriophage Cp-1, UniProt P15057 1-339, looked up) MVKKNDLFVDVSSHNGYDITGILEQMGTTNTIIKISESTTYLNPCLSAQVEQSNPIGFYHFARFGGDVAEAEREAQFFLDNVPMQVKYLVLDYEDDPSGDAQANTNACLRFMQMIADAGYKPIYYSYKPFTHDNVDYQQILAQFPNSLWIAGYGLNDGTANFEYFPSMDGIRWWQYSSNPFDKNIVLLDDEEDDKPKTAGTWKQDSKGWWFRRNNGSFPYNKWEKIGGVWYYFDSKGYCLTSEWLKDNEKWYYLKDNGAMATGWVLVGSEWYYMDDSGAMVTGWVKYKNNWYYMTNERGNMVSNEFIKSGKGWYFMNTNGELAAAASFTKEPDGLITVA | 2 | –
7 | Cpl-1 F218A:Y238A (enzyme, bacteriophage Cp-1, UniProt P15057 1-339, looked up) MVKKNDLFVDVSSHNGYDITGILEQMGTTNTIIKISESTTYLNPCLSAQVEQSNPIGFYHFARFGGDVAEAEREAQFFLDNVPMQVKYLVLDYEDDPSGDAQANTNACLRFMQMIADAGYKPIYYSYKPFTHDNVDYQQILAQFPNSLWIAGYGLNDGTANFEYFPSMDGIRWWQYSSNPFDKNIVLLDDEEDDKPKTAGTWKQDSKGWWFRRNNGSAPYNKWEKIGGVWYYFDSKGACLTSEWLKDNEKWYYLKDNGAMATGWVLVGSEWYYMDDSGAMVTGWVKYKNNWYYMTNERGNMVSNEFIKSGKGWYFMNTNGELADNPSFTKEPDGLITVA | 2 | –
8 | Cpl-1 W210A:F218A:Y238A triple mutant (enzyme, bacteriophage Cp-1, UniProt P15057 1-339, looked up) MVKKNDLFVDVSSHNGYDITGILEQMGTTNTIIKISESTTYLNPCLSAQVEQSNPIGFYHFARFGGDVAEAEREAQFFLDNVPMQVKYLVLDYEDDPSGDAQANTNACLRFMQMIADAGYKPIYYSYKPFTHDNVDYQQILAQFPNSLWIAGYGLNDGTANFEYFPSMDGIRWWQYSSNPFDKNIVLLDDEEDDKPKTAGTWKQDSKGWAFRRNNGSAPYNKWEKIGGVWYYFDSKGACLTSEWLKDNEKWYYLKDNGAMATGWVLVGSEWYYMDDSGAMVTGWVKYKNNWYYMTNERGNMVSNEFIKSGKGWYFMNTNGELADNPSFTKEPDGLITVA | 2 | –
9 | Cpl-1 KEP→AAA (enzyme, bacteriophage Cp-1, UniProt P15057 1-339, looked up) MVKKNDLFVDVSSHNGYDITGILEQMGTTNTIIKISESTTYLNPCLSAQVEQSNPIGFYHFARFGGDVAEAEREAQFFLDNVPMQVKYLVLDYEDDPSGDAQANTNACLRFMQMIADAGYKPIYYSYKPFTHDNVDYQQILAQFPNSLWIAGYGLNDGTANFEYFPSMDGIRWWQYSSNPFDKNIVLLDDEEDDKPKTAGTWKQDSKGWWFRRNNGSFPYNKWEKIGGVWYYFDSKGYCLTSEWLKDNEKWYYLKDNGAMATGWVLVGSEWYYMDDSGAMVTGWVKYKNNWYYMTNERGNMVSNEFIKSGKGWYFMNTNGELADNPSFTAAADGLITVA | 2 | –
10 | Cpl-1 W210A:F218A (enzyme, bacteriophage Cp-1, UniProt P15057 1-339, looked up) MVKKNDLFVDVSSHNGYDITGILEQMGTTNTIIKISESTTYLNPCLSAQVEQSNPIGFYHFARFGGDVAEAEREAQFFLDNVPMQVKYLVLDYEDDPSGDAQANTNACLRFMQMIADAGYKPIYYSYKPFTHDNVDYQQILAQFPNSLWIAGYGLNDGTANFEYFPSMDGIRWWQYSSNPFDKNIVLLDDEEDDKPKTAGTWKQDSKGWAFRRNNGSAPYNKWEKIGGVWYYFDSKGYCLTSEWLKDNEKWYYLKDNGAMATGWVLVGSEWYYMDDSGAMVTGWVKYKNNWYYMTNERGNMVSNEFIKSGKGWYFMNTNGELADNPSFTKEPDGLITVA | 2 | –
11 | Cpl-1 F218A (enzyme, bacteriophage Cp-1, UniProt P15057 1-339, looked up) MVKKNDLFVDVSSHNGYDITGILEQMGTTNTIIKISESTTYLNPCLSAQVEQSNPIGFYHFARFGGDVAEAEREAQFFLDNVPMQVKYLVLDYEDDPSGDAQANTNACLRFMQMIADAGYKPIYYSYKPFTHDNVDYQQILAQFPNSLWIAGYGLNDGTANFEYFPSMDGIRWWQYSSNPFDKNIVLLDDEEDDKPKTAGTWKQDSKGWWFRRNNGSAPYNKWEKIGGVWYYFDSKGYCLTSEWLKDNEKWYYLKDNGAMATGWVLVGSEWYYMDDSGAMVTGWVKYKNNWYYMTNERGNMVSNEFIKSGKGWYFMNTNGELADNPSFTKEPDGLITVA | 2 | –
12 | Cpl-1 W210A (enzyme, bacteriophage Cp-1, UniProt P15057 1-339, looked up) MVKKNDLFVDVSSHNGYDITGILEQMGTTNTIIKISESTTYLNPCLSAQVEQSNPIGFYHFARFGGDVAEAEREAQFFLDNVPMQVKYLVLDYEDDPSGDAQANTNACLRFMQMIADAGYKPIYYSYKPFTHDNVDYQQILAQFPNSLWIAGYGLNDGTANFEYFPSMDGIRWWQYSSNPFDKNIVLLDDEEDDKPKTAGTWKQDSKGWAFRRNNGSFPYNKWEKIGGVWYYFDSKGYCLTSEWLKDNEKWYYLKDNGAMATGWVLVGSEWYYMDDSGAMVTGWVKYKNNWYYMTNERGNMVSNEFIKSGKGWYFMNTNGELADNPSFTKEPDGLITVA | 2 | –
13 | Cpl-1 Y238A (enzyme, bacteriophage Cp-1, UniProt P15057 1-339, looked up) MVKKNDLFVDVSSHNGYDITGILEQMGTTNTIIKISESTTYLNPCLSAQVEQSNPIGFYHFARFGGDVAEAEREAQFFLDNVPMQVKYLVLDYEDDPSGDAQANTNACLRFMQMIADAGYKPIYYSYKPFTHDNVDYQQILAQFPNSLWIAGYGLNDGTANFEYFPSMDGIRWWQYSSNPFDKNIVLLDDEEDDKPKTAGTWKQDSKGWWFRRNNGSFPYNKWEKIGGVWYYFDSKGACLTSEWLKDNEKWYYLKDNGAMATGWVLVGSEWYYMDDSGAMVTGWVKYKNNWYYMTNERGNMVSNEFIKSGKGWYFMNTNGELADNPSFTKEPDGLITVA | 2 | –
